# The DeepSol protein solubility set
# Test: soluble on expression in E. coli; label from the status in PepcDB or PDB records
row,Sequence,soluble on expression in E. coli
1,MGSDKIHHHHHHMPDLFVTNFNRNFTGVSATAANVIRQQVATHDLALVGHALPGCPAPISARAARALSRTPPPGKPFAIWHVRRNPEMQTAIWARDVLRLPIRIVFTSAAIRRHSAFPRWLISRMDAVVATSDAAASFVPHVRAVVPHGVDTDRFTPAPDRPAAWAAQGYGGSFGIATIGRVRPEKGTDLFVEAMLRLLPDMPGAVALVVGRATKEHQKFALTLKDKVQRAGMIDRIRFIDEVPPDRLPDLMRALSLVVQLPRYEGYGMVPLEAMASGVPFVGSDTGFFREFSAQGRAGRVVPLENAGLGAEAARALLADEDVHGAAALAAREIAVESFSAAREAAGIEAVYQQLWSQAAPGA,not soluble
2,MGSDKIHHHHHHMPDMSMFGILNTALTGIHAHKLAMNIVGHNIANASTPGYSRQRPVIEANPPIPLTTLTQPSFPLQMGTGARVKTIVRLRDAFLDVQYRQVNNRYNYWDTVLSNLHFIEQLLAEPGEDGIRSLVDNFWNAFKEVMSDPSSTASKAEVVSRAQQMVSQIKDLYGRLEQLREDIDAEIVQRVSEINQMIKRLADLNNKIRTSMMLNSPPNDLLDERDRILDELSNLANINYTEAEDGQITLRIGNQIVLNGSTYRELRALERPYGKGYHELFVGNSQLILSDGKLKALIDLRDSSIVKYMRKLDEFVLFITDSLNLVHRDGFESNGVTTNLNFFKKIEAFSDDPSIFRIKGNRKLEMGPYHTVTGLHSANSQAEIEGRRFNSNDVVLSFDGGSSNVLNISAGTTIGDLVGSWNLLGTSLKVGTHAGGYRLYLEDSTGSLRNRLFLSLGDSLSQMGFDTETKGYITIKESDLSGLSSGVYNINVEYILEDGTRQTETISVDLSSGVNLSNIEASINSSSHLRAQIYADPSTGENMLVIVPDEQLNFDPSAVKVLSDDDFFTESNAFVRNYEVLKYKDTLENIFYGQTGFDPTRPFTITINSTDIEIDPAVDTLETLVEKINEKNTGVLADLTPHHSLVFRASSLYDFDLRMMEIKGPQGFFEAVGFVDPDGDPTTFDWNTSFTLVSKSDDFTTLSERFKVADILTFDRAPYDEPLNIVNQFEVSSSLATNPANLAVDVGYALENSDWNATSIKPSGGANPELLETIQNLYTRKMLSNGKESFYEFFGGVVSELGVEAETASNLKNNTEILRQEIDNAREEVKGVSLDEEMANMIEYQHAFSAAAKVITAVDQMIQTVINMVG,not soluble
3,MGSDKIHHHHHHMPFAKEKGQPAIYYETIGKGTPIIFIPPPGVGHLTFRYQVPLMNQCKLITFDVRGDCQSERSTEPMTMTQLAYDVKRVLDANCVRKAIVCGYSNGAAIAQEFALTYPERTAGVILIGGYFAVKNFLLEKEYKLGIWAARNELMPLLASGLAKNHFTDKQAANELYAEIMKTDPQMLADQYTTGLHYSSEDRLHQLRVPLLLIYGANDHYLQPYQTRFRELVHDVEIVYIQGVKHQVPSKAPHECNAVLREWMRRKQFIPS,not soluble
4,MGSDKIHHHHHHMPFQQGLLATPVPAHARHLFFTLQSPEALPAALDALLPQVDGKQLLLGVGAPLAKALGREIPGLRPFPLLDAAVENPSTQHALWLWLRGDERGDLLLRTQALEQALAPALSLADSVDGFLHRGGHDLTGYEDGTENPTDEEAVQAAIAADGSSFAAFQLWKHDLQYFKSLPQADQDNIIGRRLSDNEELDDAPASAHVKRTAQESFEPEAFMVRRSVSWADQRGAGLAFVALGKSFEAFEVQLRRMSGLEDGIIDGLYRFSRPLTGGYYWCPPMSETGVDLSPLLRA,not soluble
5,MGSDKIHHHHHHMPGKAKGRSLTAAQFNLRSDRLIAGKALRNVLPRTEQASWQPAQDRRDPIAILEDSNQGRVPELIPIRYGRMLRSPFTFLRGSAAIMAYDLATTPNTGIHVQACGDCHLLNFGLFATPERNLVFDINDFDETHPAPWEWDLKRLAVSFVIAARNNQVVDQEAESIAVSCTRSYREHLRNYSRMSPLEVWYARLEMKEIIEMAPTEKIRKRREEFAERAQKRIAEHLFPKIVTLKEGKHQFVDQPPILFHSNDPTLRNRVINGLQAYRKSLPDERRVLFDRYRLEDYATKVVGIGSVGTHCSIALFFSEENHPLILQVKEARQSVLEPYTQTNCYENQGQRVVVGQRLMQSSSDIFLGWARSDLGRDFYVRQLRDMKFSLPIDGMQAERFHRYAEFCGWALARAHAKAGDAATISGYLGKADAFDEAIAKFAVAYADQTEQDYTALVQAVASGRIEAIVEEDL,not soluble
6,MGSDKIHHHHHHMPHLFYGTAQNGEVIFDEREAHHMRVVRLKEGDVIEATDGNGFSYTCILKSLKKKTAAAKIVKVEEKEKEPTEKLSVVVPIGRWERTRFLIEKCVELGVDEIFFHKFERSQHEISLDKAKIVVREAAKQCKRYLFPKVSFLEKLEFSGNVITLDLDASQNLLDANLEGSITVVVGPEGGFSEKERELLRSSTTIVSLGKKILRFETAAILTVGYIALKKQKI,soluble
7,MGSDKIHHHHHHMPKNRDAARASLENLYRIFTVPEAPDSTLGAIDQAIAGDVAGFLQTHIVAIERPLEEIEADFSSFSIPEEPTYVSEYTEFVKENLVAHSVHTASPAFVGHMTSALPYFMLPLARLMTALNQNVVKVETSKAFTPMERQVLAMLHHLVYGRNDDFYPQWIHNSQHALGAFCSGGTLANVTALWVARNRLFAPDGEFRGIAQEGLARALKHRGADGIAVLVSERGHYSLGKAADLLGIGRDDLIKIKTDANNRIDLKALREECRRLQDRNTLPLALVGIAGTTETGNVDPLEAMADLAQELGCHFHVDAAWGGPTLFSDRHRHLLRGIERADSVTIDGHKQLYVPMGAGMVVFKDPTALSAIEHHANYILRHGSKDLGSHTLEGSRPGKAMLVHAGFSIIGRKGYELLIDMGIERARTFADMIQRHPDFELISEPELNILTYRYCPPAIQQALTDATAQQRAAINGLLDQVCQLLQKYQREAGKTFVSRTRLHVARHDMELTVLRVVLANPLTTDEILEAVLAEQCEIVRLPEIQALLRQAEELCPGLAKAV,not soluble
8,MGSDKIHHHHHHMPLKRLNRFRLWLWETPPVYEIRGRCFQIKERLCGYPELHRAFRERTGYELSLHHPCTFHHKITVLKIRRSPRIFVRAVDKIFAKELALEWAHQHGFRLYVARTLAVTKDVSEIRWHELPQRFLIKATHRSGANLFVDQSQAFDLDALRVQSRAWLQYPYGVYKHEWAYWPVPRRLLIEELIEPVDGEELVDYKFHMSRGRCLMIQVNQGLRSGKRTIAILHPSWQLQPVKWVYPQPEVIPQRPDTFYEMLEMASAFSREFPYLRVDLYSVKQVMSGVMVSRVMFGEFTFFPGSGSESVDPFAFDLAIGKEIKL,not soluble
9,MGSDKIHHHHHHMPRHDDPRYFPISPLLIVPQALGSFSVFIRKDERLILYAKAGETFTERHSRRLHENGTSEVYVRVDQRQNFGLYLERHLAHILEDDRLPVEHRASAFHCATTELLRDTFGTRLPAPVDGILFERLQSLVTMSLRFLCEQGTLKALGQLLDCDFSAYSHSVNVYALTVPLLARLGYAQTDLVRTGLGVLLHDIGLARLPRAITRHRHSLTKHEEHIYRTHPTLGVGLVAQVPLSQEALHCIMLHHERLDGSGFPAGVKDENIPTAVRALAIADTYDLLTTAPGEARLTPFMALQLMRSEHHSTLDLYLLREFITMLSDAEMAGVWPDTLR,not soluble
10,MGSDKIHHHHHHMPRNMPCPDNTMPSLSFWWRYPYLRVLVVVLLMTSQPCAISAQASTSPSVAQSSLRHLSDQLPIVGVWLTNSPSPLYYSRNLMHKAVKDLYSAGFTALYLNVWSRGSTFHRSNYAPVEGPLQKAGLALDPICTLSREGHARGMKVMPWFEYGLMEPDDAEVVKLHPDWVLARADGNPVVKMHGNHQRVWLNPAHPEVRARFIGVVIEVMKRCKMDGVQLDDHFAWPVKLGYDPYTVALYQQETGSSPPRDYSDRFWMQWRRRKLTGLLRELRQALEKEKLPVNISLAPGPFRFAYNNWLQDWELWTVGKLIDELVVQNYAYSLKGFAKDLDQPALRKAPQLGVPVHIGVLAGFGKRTTPMPILAEKVRMAAERGHGVIYFYWEGLWGQHAGIEGGIQRLRQFKQLHEKKN,not soluble
11,MGSDKIHHHHHHMPRPRRTQISLEDTPYYHCCSRVVRRAFLCGDDTYSGKNYDHRRTWVESLLFELEAIFAIDVAAFAVMSNHLHLVLRVDIDSANGWTDREVLEQWHKLFKGDELTQKFAKGELVEAYEVSRLKHSIAIYRSRLCDISWFMRCLNEPIARQANQEDNCTGRFWEGRFKSQALLDEAAVLACMTYVDLNPIRAQLADTPEQSDHTSIQLRIRAALKGEQPSNLLPFIANECDNQPNGIAFSLMDYLQLVDDTGRIIRNDKRGYISESSAKILTRLNIPHDNWLKLTTDFGKLFHGPVGTLQELTDYCEHLEKRRRHFAASCQHFKSN,not soluble
